The values that follow come from article PMC3787391.

For the assay, the target named is ligated complex of zebrafish PlexinC1_(cyto) and human Rap1B with the 24-residue linker and the LPETGG sortase recognition motif (human | zebrafish) (UniProt P61224). Put plainly: AUC; sedimentation velocity, with 2 mM AlFx; 0.5, 4, 8 and 20 μM; 10 mM Tris pH 8, 50 mM NaCl, 2 mM TCEP, 2 mM MgCl2; 20°C, 42,000 rpm; c(s) analysis; monomer to dimer.

For orientation: stoichiometry N means the number of molecules, sites or subunits per partner or assembly. For “ligated complex of zebrafish PlexinC1_(cyto) and human Rap1B with the 24-residue linker and the LPETGG sortase recognition motif (from UniProt P61224 2-166; A0A8M3ARP5 552-1147)”, the stoichiometry N was 2.
